The target in one assay is T1, ZIKV E protein (GZ01) (Zika virus, isolate GZ01 (KU820898)).
T1 construct: also called full-length E; surface envelope glycoprotein (E); source: E. coli BL21 (RIL), pET28a, IPTG-induced; inclusion bodies solubilized and re-folded
The experiment in a line: ELISA; E protein or E DIII protein captured separately onto ELISA plates overnight at 4°C; each mAb (full-length IgG) serially diluted and applied; detected with anti-human IgG-HRP and TMB; EC50 by dose-response stimulation model. The note with it: both partners purified. A general note: An ELISA detects its analyte on a solid surface through an enzyme-linked reagent.

Assay [1] concerns the target T2, ZIKV E DIII protein (residues 301-403) (Zika virus, isolate GZ01 (KU820898)).
T2 construct: source: E. coli BL21 (RIL), pET28a, IPTG-induced; inclusion bodies solubilized and re-folded
The description is as above. The settings on record: both partners purified.

B1: 2L-1 (S31N+A91S) (antibody, V domains shown)
VH: EVQLVQSGAEVKKPGASVKVSCKASGYTFTSGHTFPSYDINWVRQATGQGLEWMGWMNPNRGNTGYAQKFQGRVTMTRNTSINTAYMELSSLRSEDTAVYYCARVRSGTNYGSYYYYYYGMDVWGQGTTVTVSS
VL: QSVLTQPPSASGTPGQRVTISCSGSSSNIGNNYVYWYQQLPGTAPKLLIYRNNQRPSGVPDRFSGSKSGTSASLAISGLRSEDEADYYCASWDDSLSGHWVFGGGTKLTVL
notes: also called double mutation (S31N+A91S) into 2L-1; source: HEK 293T, transiently co-transfected, purified from supernatant (protein A agarose)
As to B1, the binding result (with ZIKV E protein (GZ01); in assay [1]) was “binds” in each case.

B2: 2H-6 (antibody, V domains shown)
VH: EVQLVQSGAEVKKPGASVKVSCKASGYTFTSYDVNWVRQATGQGLEWMGWLNPNSGNTGYAEKFQGRVTMTRNTSISTAYMELSSLRSEDTAVYYCARVSSGSYYGSYYYYYYGMDVWGQGTTVTVSS
VL: SYELTQPPSASGTPGQRVTISCSGSSSNIGNNYVHWYQQLPGSAPKLLIYRNNQRPSGVPDRFSGSKSGTSGSLAISGLRSEDEADYYCASWDDSLSGHWVFGGGTKVTVL
notes: also called ZK2B10 heavy chain somatic variant 2H-6; source: HEK 293T, transiently co-transfected, purified from supernatant (protein A agarose)
As to B2, the binding result (with ZIKV E protein (GZ01); in assay [1]) was “binds” throughout.

B3: 2H-5 (antibody, V domains shown)
VH: QVQLVQSGAEVKKPGASVNVSCKASGYTFTMYDINWVRQTTGQGLEWMGWMNPNSGNTGYAQKFQGRVTMTRNTSISTAYMELSSLRSEDTAVYYCARVSSGSYYGSYYYYYYGMDVWGQGTTVTVSS
VL: SYELTQPPSASGTPGQRVTISCSGSSSNIGNNYVHWYQQLPGSAPKLLIYRNNQRPSGVPDRFSGSKSGTSGSLAISGLRSEDEADYYCASWDDSLSGHWVFGGGTKVTVL
notes: also called ZK2B10 heavy chain somatic variant 2H-5; source: HEK 293T, transiently co-transfected, purified from supernatant (protein A agarose)
As for B3, the binding result (with ZIKV E protein (GZ01); in assay [1]) was “binds” each time.

B4: 2H-15 (antibody, V domains shown)
VH: EVQLVQSGAEVKKPGASVKVSCKASGYTFTSYDVNWVRQATGQGLEWMGWMNPNSGNTGYAQKFQGRVTMTRNTSISTAYMELSSLRSEDTAVYYCARVSSGSYYGSYYYYYYGMDVWGQGTTVTVSS
VL: SYELTQPPSASGTPGQRVTISCSGSSSNIGNNYVHWYQQLPGSAPKLLIYRNNQRPSGVPDRFSGSKSGTSGSLAISGLRSEDEADYYCASWDDSLSGHWVFGGGTKVTVL
notes: also called ZK2B10 heavy chain somatic variant 2H-15; source: HEK 293T, transiently co-transfected, purified from supernatant (protein A agarose)
B4: the binding result (with ZIKV E protein (GZ01); in assay [1]) was “binds” each time.

B5: 2H-9 (antibody, V domains shown)
VH: EVQLVQSGGKVVELGASVKVSCKASGYTFTTYDINWVRQATGQGLEWMGWMNPNSGNTGYAQKFQGRVTMTRNTSISTAYMELSSLRSEDTAVYYCARVSSGSYYGSYYYYYYGMDVWGQGTTVTVSS
VL: SYELTQPPSASGTPGQRVTISCSGSSSNIGNNYVHWYQQLPGSAPKLLIYRNNQRPSGVPDRFSGSKSGTSGSLAISGLRSEDEADYYCASWDDSLSGHWVFGGGTKVTVL
notes: also called ZK2B10 heavy chain somatic variant 2H-9; source: HEK 293T, transiently co-transfected, purified from supernatant (protein A agarose)
On to B5, for which the binding result (with ZIKV E protein (GZ01); in assay [1]) was “binds” each time.

B6: 2H-16 (antibody, V domains shown)
VH: QVQLVQSGAEVKKPGASVKVSCKASGYTFTSYDINWVRQATGQGLEWMGWMNPNSGNTGCAQKFQGRVTMTRNTSISTAYMELSSLRSEDTAVYYCARVSSGSYYGSYYYYYYGMDVWGQGTTVTVSS
VL: SYELTQPPSASGTPGQRVTISCSGSSSNIGNNYVHWYQQLPGSAPKLLIYRNNQRPSGVPDRFSGSKSGTSGSLAISGLRSEDEADYYCASWDDSLSGHWVFGGGTKVTVL
notes: also called ZK2B10 heavy chain somatic variant 2H-16; source: HEK 293T, transiently co-transfected, purified from supernatant (protein A agarose)
Consider B6, for which the binding result (with ZIKV E protein (GZ01); in assay [1]) was “binds” in each case.

B7: 2H-10 (antibody, V domains shown)
VH: QVQLVQSGVEVKKPGASVEVSCQASGITSTSYDINWVRQANGQGLEWMGWMNPNSGNTGYAQKFQGRVTMTRNTSISTAYMELSSLRSEDTAVYYCARVSSGSYYGSYYYYYYGMDVWGQGTTVTVSS
VL: SYELTQPPSASGTPGQRVTISCSGSSSNIGNNYVHWYQQLPGSAPKLLIYRNNQRPSGVPDRFSGSKSGTSGSLAISGLRSEDEADYYCASWDDSLSGHWVFGGGTKVTVL
notes: also called ZK2B10 heavy chain somatic variant 2H-10; source: HEK 293T, transiently co-transfected, purified from supernatant (protein A agarose)
Consider B7, for which the binding result (with ZIKV E protein (GZ01); in assay [1]) was “binds” each time.

B8: ZK2B10 (antibody, V domains shown)
VH: EVQLVQSGAEVKKPGASVKVSCKASGYTFTSGHTFPSYDINWVRQATGQGLEWMGWMNPNRGNTGYAQKFQGRVTMTRNTSINTAYMELSSLRSEDTAVYYCARVRSGTNYGSYYYYYYGMDVWGQGTTVTVSS
VL: SYELTQPPSASGTPGQRVTISCSGSSSNIGNNYVHWYQQLPGSAPKLLIYRNNQRPSGVPDRFSGSKSGTSGSLAISGLRSEDEADYYCASWDDSLSGHWVFGGGTKVTVL
notes: also called WT ZK2B10; wild-type (WT) ZK2B10; source: HEK 293T, transiently co-transfected, purified from supernatant (protein A agarose)
Turning to B8, in assay [1], the binding result was “binds”.

B9: 2H-4 (antibody, V domains shown)
VH: QVQLVQSGREVKKPGASVKVSCKGSGYTFTSYDINWVRQAPGQGLEWMGWMNPNSGNTGYAQKFQGRVTMTRNTSISTAYMELSSLRSGDTAVYYCARVSSGSYYGSYYYYYYGMDVWGQGTTVTVSS
VL: SYELTQPPSASGTPGQRVTISCSGSSSNIGNNYVHWYQQLPGSAPKLLIYRNNQRPSGVPDRFSGSKSGTSGSLAISGLRSEDEADYYCASWDDSLSGHWVFGGGTKVTVL
notes: also called ZK2B10 heavy chain somatic variant 2H-4; source: HEK 293T, transiently co-transfected, purified from supernatant (protein A agarose)
Take B9: the binding result (with ZIKV E protein (GZ01); in assay [1]) was “binds” each time.

These data come from publication PMC6821881, “Development of a Potent and Protective Germline-Like Antibody Lineage Against Zika Virus in a Convalescent Human” (Frontiers in Immunology, 2019).
